Test results as given in patent US20030180744, “High affinity oligonucleotide ligands to growth factors” (GILEAD SCIENCES, INC., published 2003).

How the values were obtained:
KGF (hKGF) [1] = target: T1, KGF (hKGF) (Homo sapiens, UniProt P21781 P21781:32-194); test: filter; equimolar halves; high -, low -; conditions: tags: Upstate Biotechnology
T1 sequence: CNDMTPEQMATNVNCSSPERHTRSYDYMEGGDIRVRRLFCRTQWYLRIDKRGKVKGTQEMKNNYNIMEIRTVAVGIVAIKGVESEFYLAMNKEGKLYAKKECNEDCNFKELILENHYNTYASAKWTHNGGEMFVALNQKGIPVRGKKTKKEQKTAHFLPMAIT
Description: In an effort to identify shorter KGF ligands that retained binding, the binding activity of various deletions of the shortest truncate of ligand 14F, namely 14F3′T were tested. Deletions were tested in all the structural elements of the proposed pseudoknot structure. RNA transcripts containing 2′F pyrimidines and 2′OH purines were obtained by in vitro transcription using synthetic DNA templates. The activity of each ligand is shown by scoring for both the high (H) and low (L) affinity component of the 14F3′T binding curve with +(active) or −(not active). Truncates T35 and T36 represent two complementary halves of 14F3′T molecule and were additionally tested as an equimolar mixture. The structural elements of the proposed pseudoknot structure are separated by (1) and are indicated by symbols S1 (stem 1), S2 (stem 2), L1 (loop 1) and L3 (loop 3). The proposed pseudoknot structure for 14F3′T is a non-H-type pseudoknot and lacks L2 (loop 2). The complementary sequences forming S1 (S1 and S1′) and S2 (S2 and S2′) are marked by single and double underlines respectfully. In the tabulated sequences, deleted bases were replaced with periods (.). […] Deletions in loop 3 (L3), however, were tolerated as long as one copy of the RRYY box remained intact. The shortest ligand that retained activity is T22 which is a 43-mer. […]

TGFβ1 [2] = target: T2, TGFβ1 (Homo sapiens, UniProt P01137 P01137:279-390); test: filter; 3' boundary experiment; conditions: tags: Genentech or R&D Systems; chain copies: 2
KGF (hKGF) [3] = target: T1, KGF (hKGF); test: filter; biphasic, high affinity 25-44%; text p221 gives 0.3-3 pM and 2-10 nM; PC-3 Ki 0.2 nM; conditions: tags: Upstate Biotechnology; label: 32P; pseudoknot (predicted)
KGF (hKGF) [4] = target: T1, KGF (hKGF); test: competition; PC-3 cells; conditions: tags: Upstate Biotechnology
Summary of the method: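 Serum-starved PC-3 cells incubated 3–3.5 h at 4 °C with ¹²⁵I-hKGF held at […] plus competitors at 0–1,000 nM. Bound label was counted after a 0.5 M NaCl wash, with nonspecific binding defined by 100-fold excess unlabelled hKGF.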

KGF (hKGF) [5] = target: T1, KGF (hKGF); test: competition; PC-3 cells; 2.7 nM on NIH3T3/FGFR-2; 92 pM Balb/MK; conditions: tags: Upstate Biotechnology; pseudoknot
Description: (§1) PC-3 cells were plated in 24-well plates at about 10⁵ cells per well. Following growth for […], the cells were serum starved for 24 hours, washed two times with 500 μl of cold DPBS, and then incubated with 500 μl binding buffer (BB1; DPBS, 0.5 mM MgCl₂, 0.2% BSA. 0.02% sodium azide) containing various concentrations of ¹²⁵I-labeled KGF ranging from 0 to 0.8 nM. Following 3-3.5 hour incubation at 4° C., the binding mixes were aspirated and the well-adhered cells were washed two times with 1 ml BB1 and once with 1 ml BB1 supplemented with 0.5M NaCl. The remaining bound labeled hKGF was solubilized in 600 μl 0.5% SDS/0.1M NaOH and counted in a gamma counter (Beckmann). Nonspecific binding was determined in the presence of 100 fold molar excess of unlabeled hKGF. For competition assays, the labeled hKGF was kept constant at […], and varying concentrations of competitor molecules were included in the binding reactions ranging from 0-1,000 nM. Binding curves were fitted to the equation: […]
(§2) A subset of these ligands was tested on the NIH3T3/FGFR-2. In determining the Ki values, it was assumed that 3T3 cells have 500,000 binding sites per cell and PC-3 cells have 5,000 binding sites per cell.

bFGF (Example 20) [6] = target: T3, bFGF (Example 20) (UniProt P09038 P09038:143-288); test: truncated ligand from deletion analysis
PDGF-AB [7] = target: T4, PDGF-AB (Homo sapiens, UniProt P04085;P01127 P04085:87-211,P01127:82-190); test: efficient photo-crosslinking at 308 nm, to Phe84 of B chain; conditions: tags: R&D Systems, E. coli; chain copies: A/B chain dimer
PDGF-AB [8] = target: T4, PDGF-AB; test: filter; substitution pattern compatible with high affinity; conditions: tags: R&D Systems, E. coli; chain copies: A/B chain dimer; three-way helix junction
KGF (hKGF) [9] = target: T1, KGF (hKGF); test: filter; DPBS, 37 C; PC-3 Ki […] nM; conditions: tags: Upstate Biotechnology; label: 32P
KGF (hKGF) [10] = target: T1, KGF (hKGF); test: competition; PC-3 cells; 10.6 nM partial on NIH3T3/FGFR-2; conditions: tags: Upstate Biotechnology
Description: as §1, §2

PDGF-BB = PDGF-BB (Homo sapiens, UniProt P01127 P01127:82-190); test: competition; PDGF alpha-receptor PAE cells, 4 C; mitogenic half-maximal 2.5 nM; conditions: tags: R&D Systems, E. coli; chain copies: B chain dimer; three-way helix junction
TGFβ1 [11] = target: T2, TGFβ1; test: cell_activity; PAI-luciferase MLEC, n=4; conditions: tags: Genentech or R&D Systems; chain copies: 2;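 further: inhibition of TGFβ1-induced luciferase reporter expression in mink lung epithelial cells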
Description: Mink lung epithelial cells (MLEC) carrying the Pail/luc construct were maintained in DME containing 10% fetal bovine serum and 400 μg/ml G418. MLEC-Pail/luc cells were plated at 3.2×10⁴ cells per well in a 96 well Falcon plate, in 100 μl of DME+10% fetal bovine serum overnight. Media was made from autoclaved water. The cells were washed three times ([…]) in serum free DME plus Solution A (1:1). Solution A is 30 mM Hepes pH 7.6, 10 mM glucose, 3.0 mM KCl, 131 mM NaCl, 1.0 mM disodium phosphate. Samples (100 μl) were added in DME containing 20 mM Hepes pH 7.5, and 0.1% BSA (Fluka, radioimmunoassay grade). All samples were in triplicate. After six hours at 37° C. in a 5% CO₂ incubator the media was removed and cells were washed three times (100 μl each) in cold PBS. Lysis buffer (75 μl) (Analytical Luminescence Laboratory) was added and the plates incubated on ice for 20 min. The plates were sealed and frozen at −80° C. until assayed. Samples (25 μl) were assayed for luciferase activity with the Enhanced Luciferase Assay Kit from Analytical Luminescence Laboratory (San Diego, Calif., USA) according to the manufacturer's instructions using the Berthold Microlumat LB96P luminometer.
Ligands tested for inhibition of TGFβ1 activity were tested at a minimum of five concentrations. […]

bFGF (Example 20) [12] = target: T3, bFGF (Example 20); test: parent SELEX ligand
KGF (rat) [13] = target: T5, KGF (rat) (Rattus norvegicus, UniProt Q02195 Q02195:32-194); test: cell_activity; Balb/MK DNA synthesis; conditions: tags: QED Advanced Research Technologies; pseudoknot
T5 sequence: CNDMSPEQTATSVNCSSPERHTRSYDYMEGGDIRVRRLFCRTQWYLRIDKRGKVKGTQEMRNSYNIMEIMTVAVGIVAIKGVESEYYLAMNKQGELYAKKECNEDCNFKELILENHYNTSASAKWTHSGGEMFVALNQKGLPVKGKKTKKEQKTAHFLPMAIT
Description: (§3) Balb/MK cells grown in Low Ca⁺⁺ EMEM with 10% FCS (dialyzed and heat inactivated) and 5 ng/ml rhEGF were trypsinized and resuspended in Low Ca⁺⁺ EMEM with 1% FCS (dialyzed and heat inactivated) and 0.5 ng/ml rhEGF and plated on 96 well fibronectin coated culture plates at 4-6×10⁴ cells per well in 100 μl total volume. Following overnight growth, the medium was replaced with Low Ca⁺⁺ EMEM without FCS or rhEGF and serum starved for about 30 hrs. […] Following over-night incubation, ³H-thymidine was added at 0.2 μCi/well and incubation continued for an additional 7-8 hrs. The extent of ³H-thymidine incorporation was determined by TCA precipitation and filtration through GFC filter disks.

PDGF-AB [14] = target: T4, PDGF-AB; test: filter; specificity control; random RNA 22.0 nM; conditions: tags: R&D Systems, E. coli; label: 32P; pseudoknot (predicted)
bFGF = bFGF (Homo sapiens, UniProt P09038 P09038:143-288); test: filter; specificity control; random RNA 0.0375 and 10.3 nM; conditions: tags: R&D Systems; label: 32P; pseudoknot (predicted)
KGF (rat) [15] = target: T5, KGF (rat); test: filter; high affinity component; Kd2 70.0 nM; conditions: tags: QED Advanced Research Technologies; label: 32P; pseudoknot (predicted)
KGF (hKGF) [16] = target: T1, KGF (hKGF); test: cell_activity; Balb/MK mitogenic assay; conditions: tags: Upstate Biotechnology; pseudoknot
Description: as §3

TGFβ1 [17] = target: T2, TGFβ1; test: filter; specificity control; random RNA 10.4 nM; conditions: tags: Genentech; biotinylated version used in bead assay; chain copies: 2; label: 32P; pseudoknot (predicted)
EGF = EGF (Homo sapiens, UniProt P01133 P01133:971-1023); test: filter; specificity control; random RNA 2000 nM; conditions: tags: Upstate Biotechnology; label: 32P; pseudoknot (predicted)
KGF (hKGF) [18] = target: T1, KGF (hKGF); test: filter; biphasic, high affinity 37%; Kd2 3.25 nM; PC-3 Ki 0.16 nM; conditions: tags: Upstate Biotechnology; label: 32P; pseudoknot (predicted)
KGF (hKGF) [19] = target: T1, KGF (hKGF); test: competition; PC-3 cells; 6.8 nM on NIH3T3/FGFR-2; 830 pM Balb/MK; conditions: tags: Upstate Biotechnology; pseudoknot
Description: as §1, §2

T2 sequence (P01137 279-390, one chain of several): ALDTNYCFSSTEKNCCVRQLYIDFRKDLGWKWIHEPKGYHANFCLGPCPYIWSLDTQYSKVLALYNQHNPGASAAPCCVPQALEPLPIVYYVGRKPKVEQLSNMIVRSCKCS
T4 sequence (P01127 82-190, chain 2 of 2, other chains not shown): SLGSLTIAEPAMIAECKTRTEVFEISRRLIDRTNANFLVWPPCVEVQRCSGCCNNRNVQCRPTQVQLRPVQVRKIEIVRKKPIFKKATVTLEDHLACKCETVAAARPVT
T3 sequence (P09038 143-288, one chain of several): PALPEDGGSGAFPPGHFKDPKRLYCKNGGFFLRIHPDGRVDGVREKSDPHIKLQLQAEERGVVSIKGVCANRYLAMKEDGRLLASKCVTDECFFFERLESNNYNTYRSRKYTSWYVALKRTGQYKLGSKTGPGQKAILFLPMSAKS
Sequence of bFGF (P09038 143-288, one chain of several): as above
Sequence of PDGF-BB (P01127 82-190, one chain of several): as the sequence (P01127 82-190, chain 2 of 2, other chains not shown) above
Sequence of EGF (P01133 971-1023, one chain of several): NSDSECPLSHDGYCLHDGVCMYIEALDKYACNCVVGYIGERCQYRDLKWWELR

B1: T35/T36 equimolar (ssRNA)
RNA 1: GGUGGUCUCCCAAUUCUAUUCUCCAUCGUAUC
RNA 2: GGGAGGACGAUG
modifications: 2'-F pyrimidines
B1: no binding (KGF (hKGF) [1]).

B2: lib4-32 boundary (ssRNA)
RNA: GGGGGAGAACGCGGAUCCGGCAACCCCAGGCGCAUAGCUUCCGAGUAGACAGGCGGGAGGGGUGGAUGUGGCGUCACG
modifications: modified pyrimidines
B2: binds (TGFβ1 [2]).

B3: 14F (ssRNA)
RNA: GGGAGGACGAUGCGGUGGUCUCCCAAUUCUAAACUUUCUCCAUCGUAUCUGGGCCAGACGACUCGCCCGA
modifications: 2'-F pyrimidines
Binder B3 has a Kd (KGF (hKGF) [3]) of 0.0134 nM, an IC50 (KGF (hKGF) [4]; pseudoknot) of 10 nM and a Ki (KGF (hKGF) [5]) of 0.2 nM.

GGUGUGUGGAAGACAGCGGGUGGUUC (ssRNA, 2'-NH2 pyrimidines) [21A-t]: binds (bFGF (Example 20) [6]).

TGGGAGGGCGCGTTCTTCGTGGTTACTTTTAGTCCCG (ssDNA, 5-iodo-dU at 24) [20t-I4]: binds (PDGF-AB [7]).

B4: 36t 2'-OMe/2'-F (mixed)
mixed: CAGGCUACGGCACGTAGAGCAUCACCATGATCCUG
modifications: 2'-OMe C8,C11,C25,C26,G9,G10,G17,G19,G35,A12,A24,A27,U34; 2'-F U6,U22,C23,C32,C33; 3'-3' idT
B4: binds (PDGF-AB [8]).

B5: 14N (ssRNA)
RNA: GGGAGGACGAUGCGGUCCAGGGAUUGAAGUGUCGGGGUAGGAACAUAAAGGCGGCCAGACGACUCGCCCGA
modifications: 2'-NH2 pyrimidines
In the case of B5, the Kd (KGF (hKGF) [9]) is reported as 0.44 nM, the Ki (KGF (hKGF) [10]) is reported as 1.4 nM and the IC50 (KGF (hKGF) [4]) is reported as 6 nM.

CACAGGCTACGGCACGTAGAGCATCACCATGATCCTGTGT (ssDNA, 3'-3' idT) [36t] gave an IC50 (PDGF-BB) of ~1 nM.

B6: lib3-13 (ssRNA)
RNA: GGGGGAGAACGCGGAUCCGAGCAAUCCCAGGCGCAUAGCUUCCGAGUAGACAGGAGGGAGGGGUGGAUGUGGCGUCUACUCGGUGUCGUGAAGCUUCGCUCUAGAUCUCCCUUUAGUGAGGGUUA
modifications: 2'-NH2 pyrimidines
B6 showed an IC50 (TGFβ1 [11]) of 25 nM.

B7: 21A (ssRNA)
RNA: GGGAGACAAGAAUAACGCUCAAGUAGACUAAUGUGUGGAAGACAGCGGGUGGUUCGACAGGAGGCUCACAACAGGC
modifications: 2'-NH2 pyrimidines
B7: binds (bFGF (Example 20) [12]).

GGGAGGACGAUGCGGUGGUCUCCCAAUUCUAAACUUUCUCCAUCGUAUC (ssRNA, 2'-F pyrimidines) [14F3'T] was tested, and the Ki (KGF (rat) [13]) was 1.8 nM, the Kd (PDGF-AB [14]) was 50 nM and the Kd (bFGF) was 10 nM. For the same binder, the Kd (KGF (rat) [15]) was 0.0041 nM, the Ki (KGF (hKGF) [16]) was 0.034 nM and the Kd (TGFβ1 [17]) was 98 nM. It also gave a Kd (EGF) of 256 nM.

B8: 6F (ssRNA)
RNA: GGGAGGACGAUGCGGGAUCCUUUGUGGGCUCUUGUUGACCCCCUCGUUGUCCCCCCCAGACGACUCGCCCGA
modifications: 2'-F pyrimidines
B8 was tested, and the Kd (KGF (hKGF) [18]) was 0.05 nM, the Ki (KGF (hKGF) [19]) was 0.16 nM and the IC50 (KGF (hKGF) [4]; pseudoknot) was 4 nM.
